In the supplement of paper PMC10567573:

B1: STEAP1 (parent)
chain: WMLTRKQFGLLSFFFAVLHAIYSL

Variants of: B1
Assay: protein stability index of a GFP-peptide fusion (GPS, HEK-293T) (PSI 1-6); higher = more stable
Settings: c terminus: a fixed tail appended
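Note: lentivirally expressed fusions sorted by FACS into six bins by GFP to DsRed ratio, PSI derived from sequencing read proportions per bin multiplied by bin number.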

Variant	protein stability index
WMLTRKQFGLISFFFAVLHAIYSL [L11I]	2.31
WMLTRKQFGLVSFFFAVLHAIYSL [L11V]	2.15
WMLTRKQFGLNSFFFAVLHAIYSL [L11N]	3.38
WMLTRKQFGLWSFFFAVLHAIYSL [L11W]	1.72
WMLTRKQFGLSSFFFAVLHAIYSL [L11S]	1.62
WMLTRKQFGLTSFFFAVLHAIYSL [L11T]	1.95
WMLTRKQFGLASFFFAVLHAIYSL [L11A]	2.01
WMLTRKQFGLRSFFFAVLHAIYSL [L11R]	1.51
WMLTRKQFGLKSFFFAVLHAIYSL [L11K]	1.34
WMLTRKQFGLMSFFFAVLHAIYSL [L11M]	2.52
WMLTRKQFGLLSFFFAVLHKIYSL [A20K]	1.78
WMLTRKQFGLLSFFFAVLHNIYSL [A20N]	2.02
WMLTRKQFGLLSFFFAVLHEIYSL [A20E]	2.56
WMLTRKQFGLLSFFFAVLHIIYSL [A20I]	1.88
WMLTRKQFGLLSFFFAVLHRIYSL [A20R]	1.73
WMLTRKQFGLLSFFFAVLHYIYSL [A20Y]	2.1
WMLTRKQFGLLSFFFAVLHCIYSL [A20C]	2.18
WMLTRKQFGLLSFFFAVLHWIYSL [A20W]	1.79
WMLTRKQFGLLSFFFAVLHVIYSL [A20V]	1.08
WMGTRKQFGLLSFFFAVLHAIYSL [L3G]	1.76
WMATRKQFGLLSFFFAVLHAIYSL [L3A]	1.73
WMITRKQFGLLSFFFAVLHAIYSL [L3I]	2.59
WMPTRKQFGLLSFFFAVLHAIYSL [L3P]	2.27
WMTTRKQFGLLSFFFAVLHAIYSL [L3T]	2.36

Variant	protein stability index
WMDTRKQFGLLSFFFAVLHAIYSL [L3D]	2.93
WMHTRKQFGLLSFFFAVLHAIYSL [L3H]	2.09
WMRTRKQFGLLSFFFAVLHAIYSL [L3R]	1.71
WMLTRKQFGLLSFFFSVLHAIYSL [A16S]	1.45
WMLTRKQFGLLSFFFRVLHAIYSL [A16R]	1.93
WMLTRKQFGLLSFFFMVLHAIYSL [A16M]	1.13
WMLTRKQFGLLSFFFWVLHAIYSL [A16W]	2.19
WMLTRKQFGLLSFFFVVLHAIYSL [A16V]	1.51
WMLTRKQFGLLSFFFYVLHAIYSL [A16Y]	1.54
WMLTRKQFGLLSFFFIVLHAIYSL [A16I]	1.77
WMLTRKQFGLLSFFFQVLHAIYSL [A16Q]	1.52
WMLTRKQFGCLSFFFAVLHAIYSL [L10C]	1.98
WMLTRKQFGELSFFFAVLHAIYSL [L10E]	2.17
WMLTRKQFGILSFFFAVLHAIYSL [L10I]	2.05
WMLTRKQFGVLSFFFAVLHAIYSL [L10V]	1.52
WMLTRKQFGKLSFFFAVLHAIYSL [L10K]	1.73
WMLTRKQFGQLSFFFAVLHAIYSL [L10Q]	3.24
WMLTRKQFGRLSFFFAVLHAIYSL [L10R]	4.36
WMLTRKQFGPLSFFFAVLHAIYSL [L10P]	1.33
WMLTRKQFGGLSFFFAVLHAIYSL [L10G]	2
WMLTRKQFGLLMFFFAVLHAIYSL [S12M]	1.67
WMLTRKQFGLLEFFFAVLHAIYSL [S12E]	2.95
WMLTRKQFGLLLFFFAVLHAIYSL [S12L]	1.66
WMLTRKQFGLLDFFFAVLHAIYSL [S12D]	1.28

Variant	protein stability index
WMLTRKQFGLLNFFFAVLHAIYSL [S12N]	2.05
WMLTRKQFGLLPFFFAVLHAIYSL [S12P]	3.09
WMLTRKQFGLLSFFFAVLWAIYSL [H19W]	3.67
WMLTRKQFGLLSFFFAVLVAIYSL [H19V]	3.14
WMLTRKQFGLLSFFFAVLIAIYSL [H19I]	2.58
WMLTRKQFGLLSFFFAVLLAIYSL [H19L]	2.59
WMLTRKQFGLLSFFFAVLDAIYSL [H19D]	1.82
WMLTRKQFGLLSFFFAVLGAIYSL [H19G]	2.77
WMLTRKQFSLLSFFFAVLHAIYSL [G9S]	1.98
WMLTRKQFCLLSFFFAVLHAIYSL [G9C]	1.89
WMLTRKQFWLLSFFFAVLHAIYSL [G9W]	2.24
WMLTRKQFLLLSFFFAVLHAIYSL [G9L]	1.89
WMLTRKQFVLLSFFFAVLHAIYSL [G9V]	1.83
WMLTRKQFGLLSFRFAVLHAIYSL [F14R]	1.51
WMLTRKQFGLLSFWFAVLHAIYSL [F14W]	1.82
WMLTRKQFGLLSFQFAVLHAIYSL [F14Q]	3.11
WMLTRKQFGLLSFIFAVLHAIYSL [F14I]	2.96
WMLTRKQFGLLSFKFAVLHAIYSL [F14K]	2.49
WMLTRKQFGLLSFYFAVLHAIYSL [F14Y]	1.47
WMLTRKQFGLLSFMFAVLHAIYSL [F14M]	1.41
WMLTRKQFGLLSFNFAVLHAIYSL [F14N]	2.85
WMLTRKQFGLLSFCFAVLHAIYSL [F14C]	2.35
WMLTRKQFGLLSFEFAVLHAIYSL [F14E]	3.11
WMLTRKQFGLLSFFFAVLHAIYSI [L24I]	1.86

Variant	protein stability index
WMLTRKQFGLLSFFFAVLHAIYSK [L24K]	3.44
WMLTRKQFGLLSFFFAVLHAIYSP [L24P]	2.08
WMLTRKQFGLLSFFFAVLHAIYSR [L24R]	1.84
WMLTRKQFGLLSFFFAVLHAIYSD [L24D]	2.7
WMLTRKQFGLLSFFFAVLHAIYSY [L24Y]	2
WMLTRKQFGLLSFFFAVLHAIYSW [L24W]	2.13
WMLTRKQFGLLSFFFAKLHAIYSL [V17K]	2.53
WMLTRKQFGLLSFFFAMLHAIYSL [V17M]	2.85
WMLTRKQFGLLSFFFAALHAIYSL [V17A]	2.25
WMLTRKQFGLLSFFFATLHAIYSL [V17T]	2.33
WMLTRKQFGLLSFFFADLHAIYSL [V17D]	5.3
WMLTRKQFGLLSFFFACLHAIYSL [V17C]	2.6
WMLTRVQFGLLSFFFAVLHAIYSL [K6V]	3.54
WMLTRPQFGLLSFFFAVLHAIYSL [K6P]	1.8
WMLTRSQFGLLSFFFAVLHAIYSL [K6S]	2.85
WMLTRMQFGLLSFFFAVLHAIYSL [K6M]	2.07
WMLTRQQFGLLSFFFAVLHAIYSL [K6Q]	2.48
WMLTRNQFGLLSFFFAVLHAIYSL [K6N]	2.32
WMLTRKQHGLLSFFFAVLHAIYSL [F8H]	2.16
WMLTRKQMGLLSFFFAVLHAIYSL [F8M]	1.94
WMLTRKQSGLLSFFFAVLHAIYSL [F8S]	1.84
WMLTRKQNGLLSFFFAVLHAIYSL [F8N]	1.73
WMLTRKQGGLLSFFFAVLHAIYSL [F8G]	1.18
WMLTRKQVGLLSFFFAVLHAIYSL [F8V]	2.14

Variant	protein stability index
WMLTRKQPGLLSFFFAVLHAIYSL [F8P]	1.64
WMLTRKQFGLLSFFFAVLHAILSL [Y22L]	1.79
WMLTRKQFGLLSFFFAVLHAIVSL [Y22V]	2.48
WMLTRKQFGLLSFFFAVLHAIISL [Y22I]	1.1
WMLTRKQFGLLSFFFAVLHAIRSL [Y22R]	2.46
WMLTRKQFGLLSFFFAVLHAICSL [Y22C]	2.43
WMLTRKQFGLLSFFFAVLHAIPSL [Y22P]	2.29
WMLTRKQFGLLSFFFAVLHAIQSL [Y22Q]	2.21
WMLTRKQFGLLSFFFAVLHAIGSL [Y22G]	2.2
WMLTRKQFGLLSFFFAVLHAIFSL [Y22F]	1.56
WMLTRKQFGLLSFFFAVLHAITSL [Y22T]	2.03
WMLTRKQFGLLSFFFAVLHAINSL [Y22N]	1.34
WMLTRKQFGLLSAFFAVLHAIYSL [F13A]	3.27
WMLTRKQFGLLSLFFAVLHAIYSL [F13L]	2.65
WMLTRKQFGLLSPFFAVLHAIYSL [F13P]	1.95
WMLTRKQFGLLSGFFAVLHAIYSL [F13G]	2.25
WMLTRKQFGLLSWFFAVLHAIYSL [F13W]	1.67
WMLTRKQFGLLSCFFAVLHAIYSL [F13C]	2.02
WMLTRKQFGLLSVFFAVLHAIYSL [F13V]	3.35
WMLTRKQFGLLSQFFAVLHAIYSL [F13Q]	1.78
WGLTRKQFGLLSFFFAVLHAIYSL [M2G]	1.46
WKLTRKQFGLLSFFFAVLHAIYSL [M2K]	1.78
WYLTRKQFGLLSFFFAVLHAIYSL [M2Y]	1.99
WTLTRKQFGLLSFFFAVLHAIYSL [M2T]	1.94

Variant	protein stability index
WELTRKQFGLLSFFFAVLHAIYSL [M2E]	2.08
WRLTRKQFGLLSFFFAVLHAIYSL [M2R]	1.9
WNLTRKQFGLLSFFFAVLHAIYSL [M2N]	2.18
WILTRKQFGLLSFFFAVLHAIYSL [M2I]	1.64
WALTRKQFGLLSFFFAVLHAIYSL [M2A]	1.74
WDLTRKQFGLLSFFFAVLHAIYSL [M2D]	1.58
WMLTRKQFGLLSFFFAVLHAIYRL [S23R]	2.43
WMLTRKQFGLLSFFFAVLHAIYPL [S23P]	1.89
WMLTRKQFGLLSFFFAVLHAIYYL [S23Y]	2.37
WMLTRKQFGLLSFFFAVLHAIYKL [S23K]	2.01
WMLTRKQFGLLSFFFAVLHAIYLL [S23L]	1.27
WMLTRKQFGLLSFFEAVLHAIYSL [F15E]	2.7
WMLTRKQFGLLSFFWAVLHAIYSL [F15W]	1.55
WMLTRKQFGLLSFFVAVLHAIYSL [F15V]	1.51
WMLTRKQFGLLSFFDAVLHAIYSL [F15D]	2.78
WMLTRKQFGLLSFFMAVLHAIYSL [F15M]	1.62
WMLTRKQFGLLSFFIAVLHAIYSL [F15I]	1.94
WMLTRKQFGLLSFFYAVLHAIYSL [F15Y]	1.71
WMLTRKQFGLLSFFLAVLHAIYSL [F15L]	2
TMLTRKQFGLLSFFFAVLHAIYSL [W1T]	2.75
LMLTRKQFGLLSFFFAVLHAIYSL [W1L]	2.24
EMLTRKQFGLLSFFFAVLHAIYSL [W1E]	1.58
NMLTRKQFGLLSFFFAVLHAIYSL [W1N]	2.35
SMLTRKQFGLLSFFFAVLHAIYSL [W1S]	1.58

Variant	protein stability index
IMLTRKQFGLLSFFFAVLHAIYSL [W1I]	2.44
WMLTRKQFGLLSFFFAVLHAFYSL [I21F]	2.26
WMLTRKQFGLLSFFFAVLHARYSL [I21R]	3.01
WMLTRKQFGLLSFFFAVLHADYSL [I21D]	3.17
WMLTRKQFGLLSFFFAVLHASYSL [I21S]	2.16
WMLTRKQFGLLSFFFAVLHAEYSL [I21E]	4.75
WMLTRKQFGLLSFFFAVLHAWYSL [I21W]	1.63
WMLTRKQFGLLSFFFAVLHALYSL [I21L]	3.18
WMLTRKQFGLLSFFFAVLHAGYSL [I21G]	2.17
WMLTQKQFGLLSFFFAVLHAIYSL [R5Q]	2.21
WMLTFKQFGLLSFFFAVLHAIYSL [R5F]	2.14
WMLTDKQFGLLSFFFAVLHAIYSL [R5D]	1.96
WMLTEKQFGLLSFFFAVLHAIYSL [R5E]	2.03
WMLTGKQFGLLSFFFAVLHAIYSL [R5G]	2.29
WMLTKKQFGLLSFFFAVLHAIYSL [R5K]	1.52
WMLTYKQFGLLSFFFAVLHAIYSL [R5Y]	2.77
WMLTRKQFGLLSFFFAVAHAIYSL [L18A]	2.43
WMLTRKQFGLLSFFFAVSHAIYSL [L18S]	1.86
WMLTRKQFGLLSFFFAVFHAIYSL [L18F]	1.63
WMLTRKQFGLLSFFFAVYHAIYSL [L18Y]	2.13
WMLTRKQFGLLSFFFAVPHAIYSL [L18P]	3.09
WMLTRKQFGLLSFFFAVRHAIYSL [L18R]	1.8
WMLTRKQFGLLSFFFAVTHAIYSL [L18T]	1.92
WMLTRKFFGLLSFFFAVLHAIYSL [Q7F]	1.47

Variant	protein stability index
WMLTRKHFGLLSFFFAVLHAIYSL [Q7H]	2.53
WMLTRKEFGLLSFFFAVLHAIYSL [Q7E]	1.21
WMLTRKCFGLLSFFFAVLHAIYSL [Q7C]	1.82
WMLTRKDFGLLSFFFAVLHAIYSL [Q7D]	2.01
WMLTRKSFGLLSFFFAVLHAIYSL [Q7S]	1.52
WMLTRKMFGLLSFFFAVLHAIYSL [Q7M]	3.42
WMLTRKVFGLLSFFFAVLHAIYSL [Q7V]	3.1
WMLTRKKFGLLSFFFAVLHAIYSL [Q7K]	1.8
WMLTRKIFGLLSFFFAVLHAIYSL [Q7I]	1.61
WMLTRKPFGLLSFFFAVLHAIYSL [Q7P]	1.45
WMLTRKWFGLLSFFFAVLHAIYSL [Q7W]	1.86
WMLHRKQFGLLSFFFAVLHAIYSL [T4H]	1.6
WMLRRKQFGLLSFFFAVLHAIYSL [T4R]	1.59
WMLKRKQFGLLSFFFAVLHAIYSL [T4K]	2.13
WMLSRKQFGLLSFFFAVLHAIYSL [T4S]	1.62
WMLYRKQFGLLSFFFAVLHAIYSL [T4Y]	1.41
WMLGRKQFGLLSFFFAVLHAIYSL [T4G]	1.63
WMLPRKQFGLLSFFFAVLHAIYSL [T4P]	1.7
WMLWRKQFGLLSFFFAVLHAIYSL [T4W]	1.89
WMLIRKQFGLLSFFFAVLHAIYSL [T4I]	2.3
